Several values for one entry are separate records, joined by “and”; a condition that tells them apart may be missing. Equal entries are not always repeated.
Conditions: Pseudomonas aeruginosa (strain ATCC 15692 / DSM 22644 / CIP 104116 / JCM 14847 / LMG 12228 / 1C / PRS 101 / PAO1), pH 7.5, GdnHCl, Fluorescence, Tris 1 mM, NaCl 1.93 M, reversible: Yes, whole UniProt chain shown

B1: Azurin wild type, P00282 (protein)
chain: MLRKLAAVSLLSLLSAPLLAAECSVDIQGNDQMQFNTNAITVDKSCKQFTVNLSHPGNLPKNVMGHNWVLSTAADMQGVVTDGMASGLDKDYLKPDDSRVIAHTKLIGSGEKDSVTFDVSKLKEGEQYMFFCTFPGHSALMKGTLTLK
20 °C
  denaturant m value: 5.53 kcal/mol/M
  denaturant midpoint (higher = more stable): 1.74 M
  unfolding free energy: 9.63 kcal/mol
-8 °C
  denaturant m value: 3.63 kcal/mol/M and 6.66 kcal/mol/M
  denaturant midpoint (higher = more stable): 1.79 M and 1.58 M
  unfolding free energy: 6.89 kcal/mol and 10.5 kcal/mol
-10 °C
  denaturant m value: 3.77 kcal/mol/M
  denaturant midpoint (higher = more stable): 1.73 M
  unfolding free energy: 6.83 kcal/mol
-12 °C
  denaturant m value: 3.85 kcal/mol/M and 6.98 kcal/mol/M
  denaturant midpoint (higher = more stable): 1.7 M and 1.5 M
  unfolding free energy: 6.77 kcal/mol and 10.5 kcal/mol

— FireProtDB (doi:10.1529/biophysj.106.099531)
